Measured values from PMC10126157, “High concentrations of soluble endoglin can inhibit BMP9 signaling in non-endothelial cells” (Scientific Reports, 2023).

Target: T1, sENG-Fc (soluble endoglin Fc fusion) (human, UniProt P17813 26-586)
T1 construct: soluble endoglin (ENG, CD105) fused to Fc, recombinant human protein from R&D Systems; Construct limits are known only through the catalogue number; source: bought: R&D Systems (Cat.# 6578-EN), recombinant human protein
T1 sequence (looked up): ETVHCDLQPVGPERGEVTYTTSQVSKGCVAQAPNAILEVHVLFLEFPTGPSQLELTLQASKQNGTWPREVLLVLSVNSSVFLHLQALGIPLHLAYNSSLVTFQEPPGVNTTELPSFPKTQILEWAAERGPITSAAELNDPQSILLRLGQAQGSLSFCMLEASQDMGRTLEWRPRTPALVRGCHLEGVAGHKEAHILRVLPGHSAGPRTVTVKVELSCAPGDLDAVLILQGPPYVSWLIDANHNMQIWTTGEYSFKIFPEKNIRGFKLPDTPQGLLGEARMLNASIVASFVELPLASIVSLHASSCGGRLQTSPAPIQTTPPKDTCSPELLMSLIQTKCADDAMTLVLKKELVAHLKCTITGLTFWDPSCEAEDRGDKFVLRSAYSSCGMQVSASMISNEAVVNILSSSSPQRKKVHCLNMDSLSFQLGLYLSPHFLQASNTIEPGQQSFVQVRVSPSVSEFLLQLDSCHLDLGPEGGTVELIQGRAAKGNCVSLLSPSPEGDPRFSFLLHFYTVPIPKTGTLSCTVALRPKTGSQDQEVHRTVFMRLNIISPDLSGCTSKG
Experiment: ELISA; ActRIIA-Fc coated on MaxiSorp plates (1 ug/mL in PBS, overnight, 4 °C), blocked with 1% BSA; BMP9 (15 ng/mL) added with increasing concentrations of sENG(M), sENG(D) or sENG-Fc; bound BMP9 detected with BMP-9 DuoSet ELISA reagents
Details: both partners purified

B1: Bone morphogenetic protein 9 (BMP9) (ligand, human, UniProt Q9UK05 320-429, looked up)
chain: SAGAGSHCQKTSLRVNFEDIGWDSWIIAPKEYEAYECKGGCFFPLADDVTPTKHAIVQTLVHLKFPTKVGKACCVPTKLSPISVLYKDDMGVPTLKYHYEGMSVAECGCR
notes: BMP9 (GDF2), recombinant human protein from R&D Systems; source: bought: R&D Systems (Cat.# 3209-BP), recombinant human protein
B1: binds.
